Measurements from patent US20240398942A1, “USE OF ANTI-CD40 ANTIBODY” (CHIA TAI TIANQING PHARMACEUTICAL GROUP CO., LTD., priority 2021, published 2024).
One block for each molecule: values may come before it.

Key:
Human CD40-his [1] = target: T1, Human CD40-his (Homo sapiens, UniProt P25942); test: Biacore surface plasmon resonance affinity and binding kinetics; conditions: for Kd: dissociation rate
T1 construct: His; purchased Acro biosystems CD0-H5228
From the text: (§1) The affinity and binding kinetics of the anti-CD40 antibody in the present application were characterized by a Biacore T200 system (GE Healthcare, Pittsburgh, PA, USA).
(§2) Briefly, a goat anti-human IgG (GE Healthcare, Cat. No. BR100839, human antibody capture kit) was covalently linked to a CM5 chip (GE Healthcare, Cat. No. BR100530, carboxymethylated dextran-coated chip) via the primary amine group using a standard amine coupling kit supplied by Biacore (GE Healthcare, Pittsburgh, PA, USA). Unreacted portions on the biosensor surface were blocked with ethanolamine. Then, the anti-CD40 antibody of the present application and two benchmark antibodies (BM1 (dacetuzumab, Genentech Inc., also referred to CD40-BM1, prepared in-house; the heavy and light chain amino acid sequences are set forth in SEQ ID NOs: 40 and 41, respectively) and BM2 (selicrelumab, Abgenix Inc., also referred to CD40-BM2, prepared in-house; the heavy and light chain amino acid sequences are set forth in SEQ ID NOS: 42 and 43, respectively)) at a concentration of 66.67 nM were directed through the chip at a flow rate of 10 μL/min. Then, serially diluted recombinant human CD40-his (Acro biosystems, Cat. No. CD0-H5228, serially 2-fold diluted from 80 nM in HBS-EP^+ buffer (supplied by Biacore)) or cynomolgus monkey CD40-his protein (Acro biosystems, Cat. No. CD0-C52H6, serially 2-fold diluted from 80 nM in HBS-EP^+ buffer (supplied by Biacore)) was directed through the chip at a flow rate of 30 μL/min. The antigen-antibody binding kinetics was tracked for 2 min and the dissociation kinetics was tracked for 10 min. The association and dissociation curves were fitted to a 1:1 Langmuir binding model using BIAcore evaluation software. KD, Ka, and Kd values were determined.

[2] = tested on: Cynomolgus monkey CD40-his; test: as above; conditions: for Kd: dissociation rate
From the text: as §1, §2

human CD40-Fc protein = human CD40-Fc protein (Homo sapiens, UniProt P25942); test: Capture ELISA binding; conditions: in words, FIGS. 1A-1C
Sequence of human CD40-Fc protein (P25942 21-193): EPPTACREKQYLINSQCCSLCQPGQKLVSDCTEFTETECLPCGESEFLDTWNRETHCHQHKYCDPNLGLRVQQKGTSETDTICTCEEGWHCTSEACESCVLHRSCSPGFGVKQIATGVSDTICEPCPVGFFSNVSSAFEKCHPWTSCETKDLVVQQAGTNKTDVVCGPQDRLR
Description: For capture ELISA, an affinity-purified goat anti-human IgG (F(ab′)2 fragment-specific, Jackson Immuno Research, Cat. No. 109-005-097) in PBS at a concentration of 2 μg/mL was immobilized on a 96-well plate at 100 μL/well and incubated overnight at 4° C. The plate was washed once with a washing buffer (PBS+0.05% v/v of Tween-20, PBST) and then blocked with 200 μL/well blocking buffer (PBST containing 5% w/v of skim milk) for 2 h at 37° C. The plate was washed 4 times, and the anti-CD40 antibody of the present application, BM1, BM2, and a negative control hIgG (human immunoglobulin for intravenous injection (pH 4), Hualan Biological Engineering Inc.) serially 5-fold diluted from 66.7 nM in a PBST containing 2.5% w/v of skim milk was added at 100 μL per well. The plate was incubated for 40 min at 37° C. and washed 4 times. A biotinylated human CD40-Fc protein (amino acid residues 21-193 of SEQ ID NO: 30 linked to the N terminus of amino acid residues 99-330 of SEQ ID NO: 28, dissolved in PBST containing 2.5% w/v of skim milk at a concentration of 1.15 nM) was added at 100 μL/well to a 96-well plate coated with the anti-CD40 antibody. The plate was incubated at 37° C. for 40 min and washed 4 times. An HRP-labeled streptavidin (diluted at 1:10000 in PBST, Jackson Immuno Research, Cat. No. 016-030-084) was added at 100 μL/well, and the plate was incubated at 37° C. for another 40 min. […]

Human CD40-his [3] = target: T1, Human CD40-his; test: Octet kinetics of humanized C1H1 antibodies; assay type: binding; conditions: Table 3, Octet; for Ka: humanized antibodies in cell supernatant, chimeric and benchmark 5 μg/mL
Description: After six days of culture in a shake flask, the cell supernatant containing the humanized antibodies huC1H1-V1 to huC1H1-V4 was harvested and the binding affinity of the antibodies to human CD40 was determined on an Octet system (Fortebio, Octet RED 96) according to the following procedures. Briefly, an anti-human IgG Fc capture (AHC) biosensor (from ForteBio) was pre-soaked in a 10 mM glycine solution (pH 1.5) for 3 s, and then soaked in a running buffer (PBST containing 0.5% w/v of BSA) for 3 s. The pre-soaking and soaking procedures were repeated 3 times. Then, the sensor was soaked in the cell supernatant containing the humanized anti-CD40 antibody, chimeric antibody C1H1 dissolved in HBS-EP^+ buffer at a concentration of 5 μg/mL, or the benchmark dissolved in HBS-EP^+ buffer at a concentration of 5 μg/mL for 120 s, and then soaked in the running buffer for 5 min. The new baseline was run in the running buffer for 180 s. The sensor was then soaked for 120 s in human CD40-his protein (Acro biosystems, Cat. No. CD0-H5228) 2-fold serially diluted from 40 nM in the running buffer and for 10 min in the running buffer […]. Finally, the sensor was pre-soaked in a 10 mM glycine solution (pH 1.5) for 3 s, and then soaked in the running buffer for 3 s. The pre-soaking and soaking procedures were repeated 3 times. The association and dissociation curves were fitted to a 1:1 Langmuir binding model using ForteBio Data Analysis 8.1.

[4] = Table 2, Biacore, association rate
[5] = Table 5, Biacore, purified antibodies

T1 sequence (P25942 21-277): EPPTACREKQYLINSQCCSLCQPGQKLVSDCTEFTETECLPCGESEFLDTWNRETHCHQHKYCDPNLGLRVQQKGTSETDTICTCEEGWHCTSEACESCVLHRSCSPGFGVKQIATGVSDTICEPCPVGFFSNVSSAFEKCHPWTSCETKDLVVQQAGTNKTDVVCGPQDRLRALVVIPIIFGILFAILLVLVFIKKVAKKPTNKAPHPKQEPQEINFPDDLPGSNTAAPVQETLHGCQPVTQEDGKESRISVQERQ

- Ka (Human CD40-his [1]; [4]): 1.82e+06 M⁻¹ s⁻¹
- Kd (Human CD40-his [1]; Table 2, Biacore): 0.001567 s⁻¹
- Kd (Human CD40-his [1]; Table 5, Biacore): 0.002221 s⁻¹
- Ka (Human CD40-his [1]; [5]): 2.51e+06 M⁻¹ s⁻¹
- Ka [2, 4]: 1.39e+06 M⁻¹ s⁻¹
- Kd ([2]; Table 2, Biacore): 0.001478 s⁻¹
- Kd ([2]; Table 5, Biacore): 0.002147 s⁻¹
- Ka [2, 5]: 2.54e+06 M⁻¹ s⁻¹
- Kd (Human CD40-his [3]; dissociation rate): 0.000929 s⁻¹
- Ka (Human CD40-his [3]): 1.47e+06 M⁻¹ s⁻¹
B1: Chimeric C1H1: C1H1 variable regions (SEQ ID NOs: 19, 23) on human IgG1 heavy chain and human κ light chain constant regions (antibody, V domains shown)
VH: EVKLVESGGGLVKPGASLKLSCAASGFTFSNYGISWVRQTSDKRLEWVASISSGGDNTYYPDNVKGRFTISRENAKNTLYLQMSSLKSEDTALYYCARAGEKAMDYWGQGTSVTVSS
VL: DIVLTQSPVTLSVTPGDSVSLSCRASQTINNNLHWYQQKSHESPRLLIKYASQSISGIPSRFSGSGSGTDFTLSINSVETEDFGIYFCQQFSSWPLTFGAGTKLELK
modifications: human IgG1 and kappa constant regions; VH of mouse and chimeric C1H1 antibodies; VL of mouse and chimeric C1H1 antibodies
- Binding ability to human CD40 in capture ELISA (human CD40-Fc protein): higher binding affinity and ability to human CD40

- Ka (Human CD40-his [1]; [4]): 1.79e+06 M⁻¹ s⁻¹
- Kd (Human CD40-his [1]; Table 2, Biacore): 0.001227 s⁻¹
- Kd (Human CD40-his [1]; Table 5, Biacore): 0.000897 s⁻¹
- Ka (Human CD40-his [1]; [5]): 2.1e+06 M⁻¹ s⁻¹
- Ka [2, 4]: 1.39e+06 M⁻¹ s⁻¹
- Kd ([2]; Table 2, Biacore): 0.001184 s⁻¹
- Kd ([2]; Table 5, Biacore): 0.000863 s⁻¹
- Ka [2, 5]: 2.29e+06 M⁻¹ s⁻¹
B2: Mouse C1H1: mouse anti-CD40 monoclonal antibody, VH SEQ ID NO: 19, VL SEQ ID NO: 23 (antibody, V domains shown)
VH: B1 VH
VL: B1 VL
modifications: VH of mouse and chimeric C1H1 antibodies; VL of mouse and chimeric C1H1 antibodies

- Kd (Human CD40-his [3]; dissociation rate): 0.00283 s⁻¹
- Ka (Human CD40-his [3]): 523000 M⁻¹ s⁻¹
- Kd (Human CD40-his [3]; read-out: KD): 5.41 nM
B3: huC1H1-V3: humanized C1H1 anti-CD40 antibody, VH SEQ ID NO: 20 X1=A, VL SEQ ID NO: 24 X1=Y X2=Y, human IgG2/κ (antibody, V domains shown)
VH: EVQLVESGGGLVKPGGSLRLSCAASGFTFSNYGISWVRQAPGKGLEWVXSISSGGDNTYYPDNVKGRFTISRDNAKNSLYLQMNSLRAEDTAVYYCARAGEKAMDYWGQGTLVTVSS
VL: EIVLTQSPATLSLSPGERATLSCRASQTINNNLHWYQQKPGQAPRLLIXYASQSISGIPARFSGSGSGTDFTLTISSLEPEDFAVYXCQQFSSWPLTFGGGTKVEIK
modifications: not fully specified; variable positions X1=A; VL X1=Y X2=Y; IgG2/kappa constant; VH of huC1H1-V1 to huC1H1-V4; VARIANT 49 X can be A or S; VL of huC1H1-V1 to huC1H1-V4; VARIANT 49 X can be K or Y; VARIANT 87 X can be F or Y

- Kd (Human CD40-his [3]; dissociation rate): 0.00367 s⁻¹
- Ka (Human CD40-his [3]): 424000 M⁻¹ s⁻¹
- Kd (Human CD40-his [3]; read-out: KD): 8.66 nM
B4: huC1H1-V4: humanized C1H1 anti-CD40 antibody, VH SEQ ID NO: 20 X1=S, VL SEQ ID NO: 24 X1=Y X2=Y, human IgG2/κ (antibody, V domains shown)
VH: B3 VH
VL: B3 VL
modifications: not fully specified; variable positions X1=S; VL X1=Y X2=Y; IgG2/kappa constant; VH of huC1H1-V1 to huC1H1-V4; VARIANT 49 X can be A or S; VL of huC1H1-V1 to huC1H1-V4; VARIANT 49 X can be K or Y; VARIANT 87 X can be F or Y
